Assay results reported in US20180318386A1, “PEPTIDES AND METHODS OF TREATING ENDOMETRIOSIS USING THE SAME” (BIOINCEPT, LLC, priority 2014, published 2018).

Assays:
Test in all cases: PIF affinity resin pull-down, CD4+ cell lysate, LC-MS/MS count
Thrombospondin-1 (human) = Thrombospondin-1 (human) (UniProt P07996)
[1] = target: Acidic leucine-rich nuclear phosphoprotein 32 family member A (human) (UniProt P39687)
[2] = target: Serine/arginine-rich-splicing factor 1 (human) (UniProt Q07955)
[3] = target: Thrombin light chain (human) (UniProt P00734)
Calreticulin (human) = Calreticulin (human) (UniProt P27797)
Calreticulin (human), sequence (P27797 18-417 limits assumed): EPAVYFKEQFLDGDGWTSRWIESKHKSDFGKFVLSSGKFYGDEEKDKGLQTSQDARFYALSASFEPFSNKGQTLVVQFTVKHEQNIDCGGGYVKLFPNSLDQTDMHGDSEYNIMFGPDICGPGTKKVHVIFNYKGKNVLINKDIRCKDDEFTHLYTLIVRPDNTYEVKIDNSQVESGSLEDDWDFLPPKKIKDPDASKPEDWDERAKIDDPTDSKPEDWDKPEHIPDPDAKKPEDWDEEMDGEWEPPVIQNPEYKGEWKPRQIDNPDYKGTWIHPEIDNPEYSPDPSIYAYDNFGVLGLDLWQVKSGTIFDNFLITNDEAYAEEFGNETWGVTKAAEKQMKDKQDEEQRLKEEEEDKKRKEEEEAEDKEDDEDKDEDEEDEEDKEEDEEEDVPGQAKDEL

[4] = target: Serine/arginine-rich-splicing factor 2 (human) (UniProt Q01130)
Serine/arginine-rich-splicing factor 2 (human), sequence (Q01130 2-221 limits assumed): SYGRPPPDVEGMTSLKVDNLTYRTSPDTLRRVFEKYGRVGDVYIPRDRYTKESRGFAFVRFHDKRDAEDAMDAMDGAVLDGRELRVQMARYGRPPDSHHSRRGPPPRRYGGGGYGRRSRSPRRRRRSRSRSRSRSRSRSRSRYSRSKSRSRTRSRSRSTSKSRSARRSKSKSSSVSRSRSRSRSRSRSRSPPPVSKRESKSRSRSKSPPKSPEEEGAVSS

[5] = target: Hepatoma-derived growth factor (human) (UniProt P51858)
Hepatoma-derived growth factor (human), sequence (P51858 whole entry): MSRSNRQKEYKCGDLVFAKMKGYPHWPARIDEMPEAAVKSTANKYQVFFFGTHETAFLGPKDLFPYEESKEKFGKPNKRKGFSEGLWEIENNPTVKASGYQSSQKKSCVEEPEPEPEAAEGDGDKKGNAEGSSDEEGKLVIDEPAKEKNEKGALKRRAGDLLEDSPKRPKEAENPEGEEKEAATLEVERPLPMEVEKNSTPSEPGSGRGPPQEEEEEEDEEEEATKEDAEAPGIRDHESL

Cofilin-1 (human) = Cofilin-1 (human) (UniProt P23528)
Cofilin-1 (human), sequence (P23528 2-166 limits assumed): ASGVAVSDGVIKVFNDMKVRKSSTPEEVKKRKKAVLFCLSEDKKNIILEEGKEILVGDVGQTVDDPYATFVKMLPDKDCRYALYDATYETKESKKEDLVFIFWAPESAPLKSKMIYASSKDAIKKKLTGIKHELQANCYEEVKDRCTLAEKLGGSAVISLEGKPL

[6] = target: Serum deprivation-response protein (human) (UniProt O95810)
Serum deprivation-response protein (human), sequence (O95810 2-425 limits assumed): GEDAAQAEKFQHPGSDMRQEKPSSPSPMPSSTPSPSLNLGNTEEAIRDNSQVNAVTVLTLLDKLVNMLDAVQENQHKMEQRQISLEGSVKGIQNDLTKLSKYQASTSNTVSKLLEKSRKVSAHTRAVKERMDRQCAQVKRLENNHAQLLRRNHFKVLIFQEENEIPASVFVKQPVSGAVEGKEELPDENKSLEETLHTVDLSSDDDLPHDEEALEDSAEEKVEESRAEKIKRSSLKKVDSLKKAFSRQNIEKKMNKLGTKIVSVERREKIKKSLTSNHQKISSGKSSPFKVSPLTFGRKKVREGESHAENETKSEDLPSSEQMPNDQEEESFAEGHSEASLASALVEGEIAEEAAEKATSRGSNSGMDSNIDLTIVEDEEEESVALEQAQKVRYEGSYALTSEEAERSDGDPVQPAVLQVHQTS

[7] = target: Actin, cytoplasmic 1 (human) (UniProt P60709)
Nucleolin (human) = Nucleolin (human) (UniProt P19338)
Nucleolin (human), sequence (P19338 2-710 limits assumed): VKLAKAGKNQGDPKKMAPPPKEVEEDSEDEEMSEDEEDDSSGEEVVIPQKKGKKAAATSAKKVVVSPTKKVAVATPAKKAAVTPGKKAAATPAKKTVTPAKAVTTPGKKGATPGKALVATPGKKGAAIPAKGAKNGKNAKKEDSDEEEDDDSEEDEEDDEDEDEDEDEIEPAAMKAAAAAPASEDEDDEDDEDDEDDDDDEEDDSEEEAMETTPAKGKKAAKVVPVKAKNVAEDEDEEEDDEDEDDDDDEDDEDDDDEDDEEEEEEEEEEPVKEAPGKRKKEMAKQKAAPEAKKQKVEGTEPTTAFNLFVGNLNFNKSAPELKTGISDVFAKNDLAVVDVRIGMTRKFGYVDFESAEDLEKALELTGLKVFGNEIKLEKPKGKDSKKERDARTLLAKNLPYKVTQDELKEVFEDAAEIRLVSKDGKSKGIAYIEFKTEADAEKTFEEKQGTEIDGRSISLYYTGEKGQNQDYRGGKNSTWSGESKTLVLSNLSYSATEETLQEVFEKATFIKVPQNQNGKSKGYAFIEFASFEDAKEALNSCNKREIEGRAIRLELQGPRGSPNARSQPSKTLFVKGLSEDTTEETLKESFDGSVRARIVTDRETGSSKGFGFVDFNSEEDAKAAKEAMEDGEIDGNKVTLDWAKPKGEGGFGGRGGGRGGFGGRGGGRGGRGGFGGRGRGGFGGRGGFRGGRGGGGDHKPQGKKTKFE

Thrombospondin-4 (human) = Thrombospondin-4 (human) (UniProt P35443)
Thrombospondin-4 (human), sequence (P35443 27-961 limits assumed): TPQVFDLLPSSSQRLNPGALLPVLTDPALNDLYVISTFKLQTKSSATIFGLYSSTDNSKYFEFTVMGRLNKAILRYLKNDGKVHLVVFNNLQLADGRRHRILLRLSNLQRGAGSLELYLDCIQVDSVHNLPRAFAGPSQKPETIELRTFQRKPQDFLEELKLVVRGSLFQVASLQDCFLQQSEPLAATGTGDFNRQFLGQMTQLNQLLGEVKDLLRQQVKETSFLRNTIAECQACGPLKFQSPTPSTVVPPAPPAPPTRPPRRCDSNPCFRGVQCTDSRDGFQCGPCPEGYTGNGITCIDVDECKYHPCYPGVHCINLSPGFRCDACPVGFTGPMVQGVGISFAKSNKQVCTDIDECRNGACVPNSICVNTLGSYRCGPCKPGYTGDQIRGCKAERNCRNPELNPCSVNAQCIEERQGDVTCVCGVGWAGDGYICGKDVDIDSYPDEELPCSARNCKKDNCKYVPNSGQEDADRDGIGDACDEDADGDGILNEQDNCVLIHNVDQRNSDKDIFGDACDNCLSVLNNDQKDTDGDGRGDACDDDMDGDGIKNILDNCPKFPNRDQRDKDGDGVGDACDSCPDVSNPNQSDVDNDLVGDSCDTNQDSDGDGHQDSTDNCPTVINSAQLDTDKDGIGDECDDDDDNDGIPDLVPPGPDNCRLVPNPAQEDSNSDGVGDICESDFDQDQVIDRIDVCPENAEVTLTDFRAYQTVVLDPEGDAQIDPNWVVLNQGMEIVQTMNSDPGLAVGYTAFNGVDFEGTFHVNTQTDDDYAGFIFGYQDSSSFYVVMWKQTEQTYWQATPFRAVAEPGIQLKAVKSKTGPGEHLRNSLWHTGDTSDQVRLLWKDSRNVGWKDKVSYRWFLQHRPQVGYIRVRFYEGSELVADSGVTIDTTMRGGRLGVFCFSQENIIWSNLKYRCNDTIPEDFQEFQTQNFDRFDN

[8] = target: Isoform 2 of Heat shock protein HSP 90-alpha (human) (UniProt P07900)
Serum albumin (human) = Serum albumin (human) (UniProt P02768)
Calmodulin (human) = Calmodulin (human) (UniProt P0DP23)
[9] = target: Tropomyosin alpha-4 chain (human) (UniProt P67936)
Tropomyosin alpha-4 chain (human), sequence (P67936 2-248 limits assumed): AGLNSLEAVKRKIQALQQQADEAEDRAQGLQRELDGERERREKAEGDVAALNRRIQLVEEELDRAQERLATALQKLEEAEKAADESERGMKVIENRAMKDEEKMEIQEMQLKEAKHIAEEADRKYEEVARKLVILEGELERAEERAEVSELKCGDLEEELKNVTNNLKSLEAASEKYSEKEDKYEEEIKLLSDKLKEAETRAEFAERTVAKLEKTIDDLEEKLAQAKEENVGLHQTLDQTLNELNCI

Serine/arginine-rich-splicing factor 1 (human), sequence (Q07955 2-248 limits assumed): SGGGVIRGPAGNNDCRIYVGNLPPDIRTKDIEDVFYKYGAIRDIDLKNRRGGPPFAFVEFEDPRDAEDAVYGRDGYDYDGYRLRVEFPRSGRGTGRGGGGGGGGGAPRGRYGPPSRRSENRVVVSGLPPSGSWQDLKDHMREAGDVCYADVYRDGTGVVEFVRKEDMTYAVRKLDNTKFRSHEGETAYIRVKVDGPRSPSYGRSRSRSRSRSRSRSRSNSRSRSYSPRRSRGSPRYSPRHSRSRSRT
Acidic leucine-rich nuclear phosphoprotein 32 family member A (human), sequence (P39687 whole entry): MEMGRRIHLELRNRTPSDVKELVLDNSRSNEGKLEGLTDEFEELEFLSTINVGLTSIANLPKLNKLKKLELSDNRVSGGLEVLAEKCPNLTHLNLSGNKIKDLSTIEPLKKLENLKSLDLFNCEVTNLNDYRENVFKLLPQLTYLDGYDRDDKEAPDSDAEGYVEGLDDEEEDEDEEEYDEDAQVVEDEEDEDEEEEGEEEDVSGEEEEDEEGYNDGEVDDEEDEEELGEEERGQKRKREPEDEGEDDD

“PIF15 affinity resin (Cys-C6 spacer-PIF15 conjugated to agarose) (peptide)” was tested, and the Ave (Thrombospondin-1 (human)) was 6, the Inject 1 (Thrombospondin-1 (human)) was 6 and the Inject 2 (Thrombospondin-1 (human)) was 6. For the same substance, the Inject 3 (Thrombospondin-1 (human)) was 6, the Ave [1] was 1 and the Inject 1 [1] was 1. It also gave an Inject 2 [1] of 1, an Inject 3 [1] of 1 and an Ave [2] of 2. The Inject 1 [2] was 2, the Inject 2 [2] was 2 and the Inject 3 [2] was 2. For the same substance, the Ave [3] was 3, the Inject 1 [3] was 3 and the Inject 2 [3] was 3. The Inject 3 [3] was 3, the Ave (Calreticulin (human)) was 4 and the Inject 1 (Calreticulin (human)) was 4. For the same substance, the Inject 2 (Calreticulin (human)) was 4, the Inject 3 (Calreticulin (human)) was 4 and the Ave [4] was 2. For the same substance, the Inject 1 [4] was 1, the Inject 2 [4] was 2 and the Inject 3 [4] was 3. It also gave an Ave [5] of 3, an Inject 1 [5] of 3 and an Inject 2 [5] of 3. It also gave an Inject 3 [5] of 3, an Ave (Cofilin-1 (human)) of 1 and an Inject 1 (Cofilin-1 (human)) of 1. The Inject 2 (Cofilin-1 (human)) was 1, the Inject 3 (Cofilin-1 (human)) was 1 and the Ave [6] was 2. The Inject 1 [6] was 2, the Inject 2 [6] was 2 and the Inject 3 [6] was 2. It also gave an Ave [7] of 2, an Inject 1 [7] of 2 and an Inject 2 [7] of 2. It also gave an Inject 3 [7] of 2, an Ave (Nucleolin (human)) of 2 and an Inject 1 (Nucleolin (human)) of 2. It also gave an Inject 2 (Nucleolin (human)) of 2, an Inject 3 (Nucleolin (human)) of 2 and an Ave (Thrombospondin-4 (human)) of 3. It also gave an Inject 1 (Thrombospondin-4 (human)) of 3, an Inject 2 (Thrombospondin-4 (human)) of 3 and an Inject 3 (Thrombospondin-4 (human)) of 3. For the same substance, the Ave [8] was 4, the Inject 1 [8] was 4 and the Inject 2 [8] was 4. It also gave an Inject 3 [8] of 4, an Ave (Serum albumin (human)) of 8 and an Inject 1 (Serum albumin (human)) of 4. The Inject 2 (Serum albumin (human)) was 7, the Inject 3 (Serum albumin (human)) was 12 and the Ave (Calmodulin (human)) was 3. It also gave an Inject 1 (Calmodulin (human)) of 3, an Inject 2 (Calmodulin (human)) of 3 and an Inject 3 (Calmodulin (human)) of 3. For the same substance, the Ave [9] was 4, the Inject 1 [9] was 4 and the Inject 2 [9] was 4. It also gave an Inject 3 [9] of 4.
